According to patent US20070009989A1, “Synthetic heparanase molecules and uses thereof” (priority 2003, published 2007):
Residue numbers refer to the chain shown, from its start.

Tests used:
[1] = target: T1, hepHyal single chain construct produced in insect cells (Homo sapiens, UniProt Q9Y251, DEL119-135/E137F/E138K/K139D/K307R/L140K/L142P/R141T/V136A); assay: Heparin titration in the fluorimetric heparanase activity assay, hepHyal; format: biochemical
T1 construct: made in house; host or cells: Sf9 insect cells (baculovirus, Bac to Bac)
Protocol: (§1) FIG. 7: Ionic strength dependence (panel A), inhibition by heparin (panel B) and pH-dependence (panel C) of wild-type heparanase produced in COS7 cells (●), hepGS3 (□) and hepHyal (▴) single chain constructs produced in insect cells using the fluorimetric activity assay.
(§2) This assay is based on the degradation of FITC-HS monitored by HPLC size exclusion chromatography. 8 μl of purified heparanase was incubated with 5 μL of FITC-HS in a 50 μl of 50 mM MES pH 6, 10% glycerol (heparanase activity buffer, HAB). The reaction mixture was incubated at room temperature for a defined period and the reaction was stopped by the addition of 50 μg of heparin. The mixture was then filtered using Ultrafree-MC centrifugal filter Devices (Millipore). 20 μl were injected on a Superdex 75™ (Pharmacia Biotech) column equilibrated in buffer 50 mM Hepes pH 7.5 150 mM Na2SO4 and connected to a Merck-Hitachi HPLC system. Fluorescent heparan sulfate degradation products were detected by an L-7485 fluorescence detector. Heparanase activity was assessed by monitoring the increase in lower molecular weight heparan sulfate species compared with the intact FITC-HS and quantified by peak area integration.

[2] = target: T2, hepGS3 single chain construct produced in insect cells (Homo sapiens, UniProt Q9Y251, DEL111-157/INS109GSGSG/K307R); assay: Heparin titration in the fluorimetric heparanase activity assay, hepGS3; format: biochemical
T2 construct: made in house; host or cells: Sf9 insect cells (baculovirus, Bac to Bac)
T2 sequence (Q9Y251 with tags, fused parts or gaps INS109GSGSG/DEL111-157/K307R): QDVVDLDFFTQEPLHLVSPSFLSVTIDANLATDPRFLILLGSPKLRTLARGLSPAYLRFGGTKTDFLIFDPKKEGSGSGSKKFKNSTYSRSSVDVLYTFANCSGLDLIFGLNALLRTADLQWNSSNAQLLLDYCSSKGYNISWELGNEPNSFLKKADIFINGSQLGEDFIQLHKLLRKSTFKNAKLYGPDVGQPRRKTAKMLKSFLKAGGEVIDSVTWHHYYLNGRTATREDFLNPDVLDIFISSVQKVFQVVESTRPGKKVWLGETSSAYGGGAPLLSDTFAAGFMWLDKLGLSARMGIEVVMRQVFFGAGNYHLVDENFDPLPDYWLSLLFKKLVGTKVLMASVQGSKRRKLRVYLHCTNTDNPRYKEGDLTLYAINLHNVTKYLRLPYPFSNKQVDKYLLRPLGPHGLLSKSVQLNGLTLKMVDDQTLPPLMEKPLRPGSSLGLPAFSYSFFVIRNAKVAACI
Protocol: as §1, §2

[3] = target: T3, wild-type heparanase produced in COS7 cells (hepwt) (Homo sapiens, UniProt Q9Y251); assay: Heparin titration in the fluorimetric heparanase activity assay, wild-type enzyme; format: biochemical
T3 construct: made in house; host or cells: COS7 cells, transient transfection with pcDNA3; partially purified on Heparin Sepharose
T3 sequence (Q9Y251 36-109 limits assumed): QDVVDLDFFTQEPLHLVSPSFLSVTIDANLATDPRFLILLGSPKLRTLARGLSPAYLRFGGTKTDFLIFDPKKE
T3 sequence (Q9Y251 158-543 limits assumed): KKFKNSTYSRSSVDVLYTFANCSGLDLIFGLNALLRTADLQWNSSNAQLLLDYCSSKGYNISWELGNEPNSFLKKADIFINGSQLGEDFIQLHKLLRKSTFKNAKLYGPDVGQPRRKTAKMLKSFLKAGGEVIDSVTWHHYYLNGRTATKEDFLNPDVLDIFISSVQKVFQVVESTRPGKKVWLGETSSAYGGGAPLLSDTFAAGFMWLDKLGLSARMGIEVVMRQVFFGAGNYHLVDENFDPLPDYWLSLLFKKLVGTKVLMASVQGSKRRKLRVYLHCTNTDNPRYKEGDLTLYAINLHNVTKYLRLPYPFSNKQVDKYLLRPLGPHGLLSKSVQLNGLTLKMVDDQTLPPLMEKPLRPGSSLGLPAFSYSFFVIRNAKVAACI
Protocol: as §1, §2

[4] = cited from earlier work
[5] = Heparanase activation of TEV cleavage site constructs by digestion with TEV protease; format: biochemical; conditions: overnight at room temperature, TEV protease 0.5 μM, 50 mM Mes pH 6.0
Protocol: Heparanase activity of these samples was assessed using the fluorimetric method.
The constructs having TEV cleavage sites at positions 109/110 and 109/110+157/158 were expressed, purified on a heparin affinity column and digested overnight at room temperature with TEV protease (0.5 μM) in 50 mM Mes pH 6.0, 10% glycerol, 0.5 mM EDTA.
as §2

[6] = target: T4, hepTEV110 (human heparanase with a TEV cleavage site E109-GSGSENLYFQ-GSG-G110 inserted between E109 and G110)
T4 chain: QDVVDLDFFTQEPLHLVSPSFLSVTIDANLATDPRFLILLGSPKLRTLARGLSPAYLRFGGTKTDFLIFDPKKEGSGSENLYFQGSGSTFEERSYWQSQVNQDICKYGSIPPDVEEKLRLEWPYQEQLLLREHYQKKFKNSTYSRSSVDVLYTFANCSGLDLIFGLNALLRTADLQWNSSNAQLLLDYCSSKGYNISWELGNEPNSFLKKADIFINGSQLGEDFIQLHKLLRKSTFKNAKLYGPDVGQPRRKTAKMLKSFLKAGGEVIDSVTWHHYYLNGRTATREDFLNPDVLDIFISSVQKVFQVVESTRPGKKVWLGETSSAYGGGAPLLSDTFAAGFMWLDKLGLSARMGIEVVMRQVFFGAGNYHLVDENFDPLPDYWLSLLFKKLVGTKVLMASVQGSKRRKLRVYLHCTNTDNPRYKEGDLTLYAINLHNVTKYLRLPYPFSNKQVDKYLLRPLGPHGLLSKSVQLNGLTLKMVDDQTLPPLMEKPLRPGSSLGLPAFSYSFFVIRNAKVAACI

[7] = target: T5, hepTEV110/158 (human heparanase with TEV cleavage sites between E109/G110 and Q157/K158)
T5 chain: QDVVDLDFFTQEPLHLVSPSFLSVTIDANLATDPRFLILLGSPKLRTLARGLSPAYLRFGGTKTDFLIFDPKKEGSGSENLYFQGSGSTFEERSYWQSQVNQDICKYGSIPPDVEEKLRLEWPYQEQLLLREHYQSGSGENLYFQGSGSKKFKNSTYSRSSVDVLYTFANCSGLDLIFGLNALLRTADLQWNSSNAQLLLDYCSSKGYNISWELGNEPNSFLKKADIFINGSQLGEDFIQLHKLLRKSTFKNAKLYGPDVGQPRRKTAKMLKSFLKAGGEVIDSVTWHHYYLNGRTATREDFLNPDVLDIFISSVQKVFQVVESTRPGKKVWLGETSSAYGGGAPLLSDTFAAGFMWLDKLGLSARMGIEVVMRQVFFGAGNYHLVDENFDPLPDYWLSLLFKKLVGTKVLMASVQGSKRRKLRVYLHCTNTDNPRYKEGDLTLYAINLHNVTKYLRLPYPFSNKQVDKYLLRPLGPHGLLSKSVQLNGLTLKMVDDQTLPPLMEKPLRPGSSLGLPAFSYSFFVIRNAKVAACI

T1 sequence (Q9Y251 other isoform, or with tags, fused parts or gaps DEL119-135/V136A/E137F/E138K/K139D/L140K/R141T/L142P/K307R): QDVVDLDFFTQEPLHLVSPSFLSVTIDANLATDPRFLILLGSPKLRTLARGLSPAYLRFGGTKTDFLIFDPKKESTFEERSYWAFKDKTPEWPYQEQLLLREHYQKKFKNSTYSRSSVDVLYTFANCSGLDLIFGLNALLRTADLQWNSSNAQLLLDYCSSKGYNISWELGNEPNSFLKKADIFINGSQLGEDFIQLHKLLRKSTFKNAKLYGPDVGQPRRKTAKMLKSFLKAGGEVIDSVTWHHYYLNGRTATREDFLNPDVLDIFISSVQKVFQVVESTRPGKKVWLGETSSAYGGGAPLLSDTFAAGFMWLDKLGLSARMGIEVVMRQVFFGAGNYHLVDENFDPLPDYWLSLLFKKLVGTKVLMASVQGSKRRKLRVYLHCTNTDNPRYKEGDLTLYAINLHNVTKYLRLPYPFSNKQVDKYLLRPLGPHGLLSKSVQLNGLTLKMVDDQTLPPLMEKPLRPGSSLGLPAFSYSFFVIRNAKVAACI

For heparin, the “IC50 of heparin, hepHyal” value [1] was 1.5 µg/mL, the “IC50 of heparin, hepGS3” value [2] was 1.1 µg/mL and the “IC50 of heparin, hepwt” value [3] was 0.9 µg/mL.

B1: 50 kDa protein: mature 50 kDa human heparanase fragment, SEQ ID NO:16 (protein)
chain: T3 sequence (Q9Y251 158-543 limits assumed) with K150R
modifications: Human
In the case of B1, the “activity if expressed as such in mammalian cells” value ([4]; Hulett et al. 1999) is listed as “inactive” and the “specific activity relative to the unprocessed 65 kDa precursor” value ([4]; Vlodavsky et al. 1999) is listed as “at least 100 fold”.

B2: 109/110+157/158: heparanase with TEV cleavage sites between E109/G110 and Q157/K158, SEQ ID NOs:29 and 32 (protein)
chain: T5 chain
With B2 the “activation of heparanase by TEV protease treatment” value [5] was “activated”.

B3: tobacco etch virus (TEV) protease (protein)
chain: GESLFKGPRDYNPISSTICHLTNESDGHTTSLYGIGFGPFIITNKHLFRRNNGTLLVQSLHGVFKVKNTTTLQQHLIDGRDMIIIRMPKDFPPFPQKLKFREPQREERICLVTTNFQTKSMSSMVSDTSCTFPSSDGIFWKHWIQTKDGQCGSPLVSTRDGFIVGIHSASNFTNTNNYFTSVPKNFMELLTNQEAQQWVSGWRLNADSVLWGGHKVFMSKPEEPFQPVKEATQLMNELVYSQ
In the case of B3, the “proteolytic processing by TEV protease (overnight digestion, Western blot)” value [6] is reported as “Complete processing was observed in both cases” and the “proteolytic processing by TEV protease (overnight digestion, Western blot)” value [7] is reported as “Complete processing was observed in both cases”.

B4: 109/110: heparanase with TEV protease cleavage site between E109 and G110, protein SEQ ID NO:31 (protein)
chain: MLLRSKPALPPPLMLLLLGPLGPLSPGALPRPAQAQDVVDLDFFTQEPLHLVSPSFLSVTIDANLATDPRFLILLGSPKLRTLARGLSPAYLRFGGTKTDFLIFDPKKEGSGSENLYFQGSGSTFEERSYWQSQVNQDICKYGSIPPDVEEKLRLEWPYQEQLLLREHYQKKFKNSTYSRSSVDVLYTFANCSGLDLIFGLNALLRTADLQWNSSNAQLLLDYCSSKGYNISWELGNEPNSFLKKADIFINGSQLGEDFIQLHKLLRKSTFKNAKLYGPDVGQPRRKTAKMLKSFLKAGGEVIDSVTWHHYYLNGRTATREDFLNPDVLDIFISSVQKVFQVVESTRPGKKVWLGETSSAYGGGAPLLSDTFAAGFMWLDKLGLSARMGIEVVMRQVFFGAGNYHLVDENFDPLPDYWLSLLFKKLVGTKVLMASVQGSKRRKLRVYLHCTNTDNPRYKEGDLTLYAINLHNVTKYLRLPYPFSNKQVDKYLLRPLGPHGLLSKSVQLNGLTLKMVDDQTLPPLMEKPLRPGSSLGLPAFSYSFFVIRNAKVAACI
modifications: hep TEV110
With B4 the “activation of heparanase by TEV protease treatment” value [5] was “not sufficient for eliciting activation”.
